Assay results: US20230312739A1 (BIOTHEUS, published 2023)

T1: human CD73 on the cell surface (tumor cells endogenously expressing human CD73; CHOS-human CD73) (human, UniProt P21589 27-549)
T1 sequence: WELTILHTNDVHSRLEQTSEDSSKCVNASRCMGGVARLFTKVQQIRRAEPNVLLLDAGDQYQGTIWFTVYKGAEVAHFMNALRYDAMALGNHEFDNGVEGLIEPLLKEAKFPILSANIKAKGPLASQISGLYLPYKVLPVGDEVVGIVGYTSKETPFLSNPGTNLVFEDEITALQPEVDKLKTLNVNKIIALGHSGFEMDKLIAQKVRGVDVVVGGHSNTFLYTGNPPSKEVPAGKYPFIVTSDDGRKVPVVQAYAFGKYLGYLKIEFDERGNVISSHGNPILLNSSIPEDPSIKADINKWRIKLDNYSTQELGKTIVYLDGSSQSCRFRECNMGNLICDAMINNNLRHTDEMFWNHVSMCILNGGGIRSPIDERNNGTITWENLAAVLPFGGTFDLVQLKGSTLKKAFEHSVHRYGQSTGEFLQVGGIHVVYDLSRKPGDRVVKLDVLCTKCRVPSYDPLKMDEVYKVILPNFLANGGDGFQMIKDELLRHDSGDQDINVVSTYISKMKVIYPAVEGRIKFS

T2: recombinant human CD73 protein (Baiying Bio) (human, UniProt P21589 27-549)
T2 construct: Bought protein; also called soluble recombinant CD73; soluble human CD73 protein
T2 sequence: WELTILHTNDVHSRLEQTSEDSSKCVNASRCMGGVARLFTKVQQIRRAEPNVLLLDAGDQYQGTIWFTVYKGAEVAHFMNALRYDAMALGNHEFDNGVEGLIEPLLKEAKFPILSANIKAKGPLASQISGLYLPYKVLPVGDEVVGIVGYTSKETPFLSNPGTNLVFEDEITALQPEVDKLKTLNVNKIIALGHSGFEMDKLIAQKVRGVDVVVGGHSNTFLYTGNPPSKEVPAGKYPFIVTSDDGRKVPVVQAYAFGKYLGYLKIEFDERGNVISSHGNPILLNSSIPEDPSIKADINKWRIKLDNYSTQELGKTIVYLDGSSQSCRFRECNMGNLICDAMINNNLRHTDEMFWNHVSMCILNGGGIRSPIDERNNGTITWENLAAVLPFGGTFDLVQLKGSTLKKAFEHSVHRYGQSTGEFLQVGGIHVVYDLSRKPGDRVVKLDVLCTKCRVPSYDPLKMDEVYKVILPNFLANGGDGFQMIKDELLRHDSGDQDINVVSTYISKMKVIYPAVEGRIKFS


Columns and labels:
[1] = biological target: CD73 on cynomolgus macaques CD3+CD8+ T cells (cynomolgus macaques); test: flow cytometry on cynomolgus macaque PBMC, CD3+CD8+ T cells, donor 1132F
[2] = biological target: CD73 on cynomolgus macaques CD3+CD8+ T cells (cynomolgus macaques); test: flow cytometry on cynomolgus macaque PBMC, CD3+CD8+ T cells, donor 1300M
[3] = biological target: T1, human CD73 on the cell surface (tumor …); test: cell-based or functional assay
[4] = biological target: T1, human CD73 on the cell surface (tumor …); test: flow cytometry, MFI, A375 cells expressing human CD73
Method: (§1) 500,000 CD73-expressing cells (see Example 2) were placed in 100 μL of FACS buffer (PBS+2% FBS)/well for later use in a round-bottom low adsorption 96-well plate. The antibody sample was subjected to serial 3-fold dilutions at 12 points by diluting ½ of the total volume (100 μL) in 200 μL of FACS buffer. 100 μL of the diluted antibody was added to each well of the cell plate, 100 μL of FACS buffer was added to the corresponding negative control well, and incubation was performed at 4° C. for 1 hour. […] After staining, the supernatant was removed by centrifugation, washing was performed twice with FACS buffer, and 100 μL of FACS buffer was added to each well to resuspend the cells, and then reading was performed on flow cytometry. The cells in the plate were measured using a flow cytometer (BD, model ACCURI C6 PLUS). During the measurement, the cells were first gated according to FCS and SSC, and then analyzed by the green fluorescence channel (FITC) corresponding to the secondary antibody and SSC. GraphPad was used for data analysis, wherein the abscissa indicated the logarithm of antibody concentration, the ordinate indicated mean fluorescence intensity, and the EC50 value of the anti-CD73 antibody was obtained by curve fitting.

[5] = biological target: T1, human CD73 on the cell surface (tumor …); test: flow cytometry, MFI, MDA-MB-231 cells expressing human CD73
Method: as §1

[6] = biological target: T2, recombinant human CD73 protein (Baiying …); test: SPR, Biacore T200 at 25 C, antibody captured on Protein A chip, CD73 protein as analyte, 1:1 model
Method: The antibody was diluted with running buffer 1*HBS-EP+ to 1 μg/ml, and was captured onto the chip surface (Protein A chip, GE, Cat #29127556) at a flow rate of 10 μl/min for 30 s. Then, a series of concentrations of CD73 protein (Baiying Bio, recombinant human CD73 protein) were injected into antibody channel at a flow rate of 30 μl/min, for association of 180 s, followed by dissociation for 900 s. 10 mM pH 1.5 Gly-HCl was used for regeneration. The sensorgram data was fitted using a 1:1 dynamic binding model.

[7] = biological target: T2, recombinant human CD73 protein (Baiying …); test: ELISA, 1 ug/ml recombinant human CD73 coated, HRP-coupled anti-IgG Fc secondary antibody, OD450
Method: 1 μg/ml recombinant human CD73 protein (Baiying Bio, recombinant human CD73 protein) was coated on an ELISA plate in PBS for overnight at 4° C. The plate was washed 3 times with washing buffer (PBS, 0.05% Tween-20), and non-specific sites were blocked by adding 200 μl/well PBS+2% BSA. 100 μL of the anti-CD73 antibody in a dose range of gradient dilution was added to the ELISA plate coated with the antigen, and incubated at 37° C. for 1 h. The plate was washed 3 times in washing buffer, and HRP-coupled goat anti-human or goat anti-mouse IgG Fc fragment secondary antibody was added for 1 h at room temperature to detect the captured anti-CD73 antibody. […] The enzymatic reaction was stopped by adding 1M sulfuric acid solution, and the light absorption was measured at 450 nm. The graph was plotted with the absorbance value on the ordinate and the log value of antibody concentration on the abscissa, and the EC50 was calculated using GraphPad Prism software.

Row | Molecule | MFI FC (fold change of mean fluorescence intensity) [1] [fold] | MFI FC (fold change of mean fluorescence intensity) [2] [fold] | IC50 of antibody inhibiting enzymatic activity of CD73 on surface of A375 cells (AMP/ATP CellTiter-Glo) [3] [µg/mL] | IC50 of antibody inhibiting enzymatic activity of CD73 on surface of MDA-MB-231 cells (AMP/ATP CellTiter-Glo) [3] [µg/mL] | EC50 [4] [µg/mL] | EC50 [5] [µg/mL] | Kd [6] [nM] | koff [6] [s⁻¹] | kon [6] [M⁻¹ s⁻¹] | EC50 (read off the curve) [7] [µg/mL]
1 | Isotype control (IgG1-TM) (antibody) | 1.2 | 1 |  |  |  |  |  |  |  | 
2 | humanized antibody 7002-01 (antibody, human IgG1, kappa, V domains shown) VH: QVQLQESGPGLVKPSQTLSLTCTVSGYSITSGYDWHWIRQHPGKGLEWMGYISYSGYTDYNPSLKSRITISHDTSKNQFSLKLSSVTAADTAVYYCTRGDHSYAMDYWGQGTLVTVSS VL: AIQMTQSHSSLSASVGDRVTITCKASQAVGTAVAWYQQKPGKSPKLLIYWASSRHTGVPSRFSGSRSGTDFTLTISSLQPEDFATYFCQQYSSYPLTFGGGTKVEIKR |  |  | 0.26 | 1 | 0.6 | 0.99 | 0.21 | 6.24e-05 | 297000 | ~0.008
